In US10919943B2, “Mutant proteins enabling agrochemical control of plant gene expression” (The Regents of the University of California, priority 2016, dated 2021):
Substitutions are numbered along the chain they refer to. In names and notes the source's numbering stands.

T1: PYR1 (Arabidopsis thaliana, UniProt O49686)
T1 construct: expressed in transfected cells; host or cells: S. cerevisiae strain Y190
T1 sequence (O49686 1-191): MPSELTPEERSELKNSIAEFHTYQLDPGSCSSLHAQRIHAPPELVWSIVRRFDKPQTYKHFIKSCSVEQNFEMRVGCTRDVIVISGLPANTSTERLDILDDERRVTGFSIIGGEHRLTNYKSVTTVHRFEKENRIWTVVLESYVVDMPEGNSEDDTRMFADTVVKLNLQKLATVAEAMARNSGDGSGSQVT

B1: H245L: HAB1 mutant (protein, UniProt Q9CAJ0 23-511, looked up, variant H245L)
Protein phosphatase 2C 16: SPVEITQLKNVTDAADLLSDSENQSFCNGGTECTMEDVSELEEVGEQDLLKTLSDTRSGSSNVFDEDDVLSVVEDNSAVISEGLLVVDAGSELSLSNTAMEIDNGRVLATAIIVGESSIEQVPTAEVLIAGVNQDTNTSEVVIRLPDENSNHLVKGRSVYELDCIPLWGTVSIQGNRSEMEDAFAVSPHFLKLPIKMLMGDHEGMSPSLTHLTGHFFGVYDGLGGHKVADYCRDRLHFALAEEIERIKDELCKRNTGEGRQVQWDKVFTSCFLTVDGEIEGKIGRAVVGSSDKVLEAVASETVGSTAVVALVCSSHIVVSNCGDSRAVLFRGKEAMPLSVDHKPDREDEYARIENAGGKVIQWQGARVFGVLAMSRSIGDRYLKPYVIPEPEVTFMPRSREDECLILASDGLWDVMNNQEVCEIARRRILMWHKKNGAPPLAERGKGIDPACQAAADYLSMLALQKGSKDNISIIVIDLKAQRKFKTRT
B2: H245D: HAB1 mutant (protein, UniProt Q9CAJ0 23-511, looked up, variant H245D)
Protein phosphatase 2C 16: B1 Protein phosphatase 2C 16 with L223D
B3: G247Q: HAB1 mutant (protein, UniProt Q9CAJ0 23-511, looked up, variant G247Q)
Protein phosphatase 2C 16: B1 Protein phosphatase 2C 16 with L223H, G225Q
B4: G247M: HAB1 mutant (protein, UniProt Q9CAJ0 23-511, looked up, variant G247M)
Protein phosphatase 2C 16: B1 Protein phosphatase 2C 16 with L223H, G225M
B5: G247A: HAB1 mutant (protein, UniProt Q9CAJ0 23-511, looked up, variant G247A)
Protein phosphatase 2C 16: B1 Protein phosphatase 2C 16 with L223H, G225A
B6: G246P: HAB1 mutant (protein, UniProt Q9CAJ0 23-511, looked up, variant G246P)
Protein phosphatase 2C 16: B1 Protein phosphatase 2C 16 with L223H, G224P
B7: G246K: HAB1 mutant (protein, UniProt Q9CAJ0 23-511, looked up, variant G246K)
Protein phosphatase 2C 16: B1 Protein phosphatase 2C 16 with L223H, G224K
B8: G246E: HAB1 mutant (protein, UniProt Q9CAJ0 23-511, looked up, variant G246E)
Protein phosphatase 2C 16: B1 Protein phosphatase 2C 16 with L223H, G224E
B9: G246D: HAB1 mutant (protein, UniProt Q9CAJ0 23-511, looked up, variant G246D)
Protein phosphatase 2C 16: B1 Protein phosphatase 2C 16 with L223H, G224D
B10: G246W: HAB1 mutant (protein, UniProt Q9CAJ0 23-511, looked up, variant G246W)
Protein phosphatase 2C 16: B1 Protein phosphatase 2C 16 with L223H, G224W
B11: H245Q: HAB1 mutant (protein, UniProt Q9CAJ0 23-511, looked up, variant H245Q)
Protein phosphatase 2C 16: B1 Protein phosphatase 2C 16 with L223Q
B12: H245R: HAB1 mutant (protein, UniProt Q9CAJ0 23-511, looked up, variant H245R)
Protein phosphatase 2C 16: B1 Protein phosphatase 2C 16 with L223R
B13: G246T: HAB1 mutant (protein, UniProt Q9CAJ0 23-511, looked up, variant G246T)
Protein phosphatase 2C 16: B1 Protein phosphatase 2C 16 with L223H, G224T
B14: G246C: HAB1 mutant (protein, UniProt Q9CAJ0 23-511, looked up, variant G246C)
Protein phosphatase 2C 16: B1 Protein phosphatase 2C 16 with L223H, G224C
B15: G247R: HAB1 mutant (protein, UniProt Q9CAJ0 23-511, looked up, variant G247R)
Protein phosphatase 2C 16: B1 Protein phosphatase 2C 16 with L223H, G225R
B16: H245T: HAB1 mutant (protein, UniProt Q9CAJ0 23-511, looked up, variant H245T)
Protein phosphatase 2C 16: B1 Protein phosphatase 2C 16 with L223T
B17: H245K: HAB1 mutant (protein, UniProt Q9CAJ0 23-511, looked up, variant H245K)
Protein phosphatase 2C 16: B1 Protein phosphatase 2C 16 with L223K
B18: H245P: HAB1 mutant (protein, UniProt Q9CAJ0 23-511, looked up, variant H245P)
Protein phosphatase 2C 16: B1 Protein phosphatase 2C 16 with L223P
B19: G247P: HAB1 mutant (protein, UniProt Q9CAJ0 23-511, looked up, variant G247P)
Protein phosphatase 2C 16: B1 Protein phosphatase 2C 16 with L223H, G225P
B20: G246A: HAB1 mutant (protein, UniProt Q9CAJ0 23-511, looked up, variant G246A)
Protein phosphatase 2C 16: B1 Protein phosphatase 2C 16 with L223H, G224A
B21: H245C: HAB1 mutant (protein, UniProt Q9CAJ0 23-511, looked up, variant H245C)
Protein phosphatase 2C 16: B1 Protein phosphatase 2C 16 with L223C
B22: H245E: HAB1 mutant (protein, UniProt Q9CAJ0 23-511, looked up, variant H245E)
Protein phosphatase 2C 16: B1 Protein phosphatase 2C 16 with L223E
B23: G246H: HAB1 mutant (protein, UniProt Q9CAJ0 23-511, looked up, variant G246H)
Protein phosphatase 2C 16: B1 Protein phosphatase 2C 16 with L223H, G224H
B24: H245N: HAB1 mutant (protein, UniProt Q9CAJ0 23-511, looked up, variant H245N)
Protein phosphatase 2C 16: B1 Protein phosphatase 2C 16 with L223N
B25: G246I: HAB1 mutant (protein, UniProt Q9CAJ0 23-511, looked up, variant G246I)
Protein phosphatase 2C 16: B1 Protein phosphatase 2C 16 with L223H, G224I
B26: G246F: HAB1 mutant (protein, UniProt Q9CAJ0 23-511, looked up, variant G246F)
Protein phosphatase 2C 16: B1 Protein phosphatase 2C 16 with L223H, G224F
B27: H245M: HAB1 mutant (protein, UniProt Q9CAJ0 23-511, looked up, variant H245M)
Protein phosphatase 2C 16: B1 Protein phosphatase 2C 16 with L223M
B28: H245G: HAB1 mutant (protein, UniProt Q9CAJ0 23-511, looked up, variant H245G)
Protein phosphatase 2C 16: B1 Protein phosphatase 2C 16 with L223G
B29: G246L: HAB1 mutant (protein, UniProt Q9CAJ0 23-511, looked up, variant G246L)
Protein phosphatase 2C 16: B1 Protein phosphatase 2C 16 with L223H, G224L
B30: H245Y: HAB1 mutant (protein, UniProt Q9CAJ0 23-511, looked up, variant H245Y)
Protein phosphatase 2C 16: B1 Protein phosphatase 2C 16 with L223Y
B31: G246M: HAB1 mutant (protein, UniProt Q9CAJ0 23-511, looked up, variant G246M)
Protein phosphatase 2C 16: B1 Protein phosphatase 2C 16 with L223H, G224M
B32: H245I: HAB1 mutant (protein, UniProt Q9CAJ0 23-511, looked up, variant H245I)
Protein phosphatase 2C 16: B1 Protein phosphatase 2C 16 with L223I
B33: G246V: HAB1 mutant (protein, UniProt Q9CAJ0 23-511, looked up, variant G246V)
Protein phosphatase 2C 16: B1 Protein phosphatase 2C 16 with L223H, G224V
B34: H245F: HAB1 mutant (protein, UniProt Q9CAJ0 23-511, looked up, variant H245F)
Protein phosphatase 2C 16: B1 Protein phosphatase 2C 16 with L223F
B35: G246R: HAB1 mutant (protein, UniProt Q9CAJ0 23-511, looked up, variant G246R)
Protein phosphatase 2C 16: B1 Protein phosphatase 2C 16 with L223H, G224R
B36: G246Q: HAB1 mutant (protein, UniProt Q9CAJ0 23-511, looked up, variant G246Q)
Protein phosphatase 2C 16: B1 Protein phosphatase 2C 16 with L223H, G224Q
B37: G246N: HAB1 mutant (protein, UniProt Q9CAJ0 23-511, looked up, variant G246N)
Protein phosphatase 2C 16: B1 Protein phosphatase 2C 16 with L223H, G224N
B38: G246Y: HAB1 mutant (protein, UniProt Q9CAJ0 23-511, looked up, variant G246Y)
Protein phosphatase 2C 16: B1 Protein phosphatase 2C 16 with L223H, G224Y
B39: H245S: HAB1 mutant (protein, UniProt Q9CAJ0 23-511, looked up, variant H245S)
Protein phosphatase 2C 16: B1 Protein phosphatase 2C 16 with L223S
B40: H245V: HAB1 mutant (protein, UniProt Q9CAJ0 23-511, looked up, variant H245V)
Protein phosphatase 2C 16: B1 Protein phosphatase 2C 16 with L223V
B41: G246S: HAB1 mutant (protein, UniProt Q9CAJ0 23-511, looked up, variant G246S)
Protein phosphatase 2C 16: B1 Protein phosphatase 2C 16 with L223H, G224S
B42: H245W: HAB1 mutant (protein, UniProt Q9CAJ0 23-511, looked up, variant H245W)
Protein phosphatase 2C 16: B1 Protein phosphatase 2C 16 with L223W

Target: T1, PYR1
Test: Yeast two hybrid of pACT-HAB1 site saturation mutants with pBD-PYR1 on 10 μM ABA, β-galactosidase staining
Type: cell-based
Set-up: key: x: Mutations in HAB1 that disrupt HAB1 interaction with PYR1
Conditions: S. cerevisiae Y190, 10 μM ABA; dead = lack of detectable staining in comparison to wild type control
In short: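 Read-out is β-galactosidase staining of chloroform-lysed Y190 colonies grown 2 days at 30 °C on SD (-Leu,-Trp) plus 10 μM ABA. Each pACT-HAB1 single-substitution mutant (N-terminally truncated by three residues) was paired with pBD-PYR1; absence of detectable staining relative to wild type scored as dead.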

Row | Mutations in HAB1 that disrupt HAB1 interaction with PYR1 | Molecule
1 | x | B1
2 | x | B2
3 | x | B3
4 | x | B4
5 | x | B5
6 | x | B6
7 | x | B7
8 | x | B8
9 | x | B9
10 | x | B10
11 | x | B11
12 | x | B12
13 | x | B13
14 | x | B14
15 | x | B15
16 | x | B16
17 | x | B17
18 | x | B18
19 | x | B19
20 | x | B20
21 | x | B21

Row | Mutations in HAB1 that disrupt HAB1 interaction with PYR1 | Molecule
22 | x | B22
23 | x | B23
24 | x | B24
25 | x | B25
26 | x | B26
27 | x | B27
28 | x | B28
29 | x | B29
30 | x | B30
31 | x | B31
32 | x | B32
33 | x | B33
34 | x | B34
35 | x | B35
36 | x | B36
37 | x | B37
38 | x | B38
39 | x | B39
40 | x | B40
41 | x | B41
42 | x | B42
